{"source": "paper PMC6995596", "about": "“The Plasma Factor XIII Heterotetrameric Complex Structure: Unexpected Unequal Pairing within a Symmetric Complex” (Biomolecules, 2019)", "binders": {"B1": {"name": "recombinant FXIII-A2 (coagulation factor XIII A subunit dimer) (natural protein)", "chain": "SETSRTAFGGRRAVPPNNSNAAEDDLPTVELQGVVPRGVNLQEFLNVTSVHLFKERWDTNKVDHHTDKYENNKLIVRRGQSFYVQIDFSRPYDPRRDLFRVEYVIGRYPQENKGTYIPVPIVSELQSGKWGAKIVMREDRSVRLSIQSSPKCIVGKFRMYVAVWTPYGVLRTSRNPETDTYILFNPWCEDDAVYLDNEKEREEYVLNDIGVIFYGEVNDIKTRSWSYGQFEDGILDTCLYVMDRAQMDLSGRGNPIKVSRVGSAMVNAKDDEGVLVGSWDNIYAYGVPPSAWTGSVDILLEYRSSENPVRYGQCWVFAGVFNTFLRCLGIPARIVTNYFSAHDNDANLQMDIFLEEDGNVNSKLTKDSVWNYHCWNEAWMTRPDLPVGFGGWQAVDSTPQENSDGMYRCGPASVQAIKHGHVCFQFDAPFVFAEVNSDLIYITAKKDGTHVVENVDATHIGKLIVTKQIGGDGMMDITDTYKFQEGQEEERLALETALMYGAKKPLNTEGVMKSRSNVDMDFEVENAVLGKDFKLSITFRNNSHNRYTITAYLSANITFYTGVPKAEFKKETFDVTLEPLSFKKEAVLIQAGEYMGQLLEQASLHFFVTARINETRDVLAKQKSTVLTIPEIIIKVRGTQVVGSDMTVTVEFTNPLKETLRNVWVHLDGPGVTRPMKKMFREIRPNSTVQWEEVCRPWVSGHRKLIASMSSDSLRHVYGELDVQIQRRPSM", "modifications": "zymogen dimer with activation peptide retained (paper residues 1-37 = entry 2-38; paper numbering = entry minus 1); initiator Met removed; limits follow the paper's domain boundaries (1-731) and PDB 1F13; any residual tag residues not stated"}, "B2": {"name": "recombinant FXIII-B (coagulation factor XIII B subunit) (natural protein, human, UniProt P05160 21-661, looked up)", "chain": "EEKPCGFPHVENGRIAQYYYTFKSFYFPMSIDKKLSFFCLAGYTTESGRQEEQTTCTTEGWSPEPRCFKKCTKPDLSNGYISDVKLLYKIQENMRYGCASGYKTTGGKDEEVVQCLSDGWSSQPTCRKEHETCLAPELYNGNYSTTQKTFKVKDKVQYECATGYYTAGGKKTEEVECLTYGWSLTPKCTKLKCSSLRLIENGYFHPVKQTYEEGDVVQFFCHENYYLSGSDLIQCYNFGWYPESPVCEGRRNRCPPPPLPINSKIQTHSTTYRHGEIVHIECELNFEIHGSAEIRCEDGKWTEPPKCIEGQEKVACEEPPFIENGAANLHSKIYYNGDKVTYACKSGYLLHGSNEITCNRGKWTLPPECVENNENCKHPPVVMNGAVADGILASYATGSSVEYRCNEYYLLRGSKISRCEQGKWSSPPVCLEPCTVNVDYMNRNNIEMKWKYEGKVLHGDLIDFVCKQGYDLSPLTPLSELSVQCNRGEVKYPLCTRKESKGMCTSPPLIKHGVIISSTVDTYENGSSVEYRCFDHHFLEGSREAYCLDGMWTTPPLCLEPCTLSFTEMEKNNLLLKWDFDNRPHILHGEYIEFICRGDTYPAELYITGSILRMQCDRGQLKYPRCIPRQSTLSYQEPLRT", "notes": "coagulation factor XIII B subunit, human cDNA in the pReciever-M01 mammalian expression vector; secreted protein; the stepwise ITC model treats the syringe species as single FXIII-B units; also called rFXIII-B; rFXIII-B2"}}, "key": {"[1]": {"molecular_target": "T1, recombinant FXIII-B (coagulation factor XIII B subunit) (human, UniProt P05160 21-661)", "T1 chain": "B2 chain", "assay": "ITC; event 2: M1A1 + A1 ↔ M1A2 (second site)"}, "[2]": {"molecular_target": "recombinant FXIII-A2 (coagulation factor XIII A subunit dimer) (UniProt P00488 2-732, zymogen dimer with activation peptide retained (paper residues 1-37 = entry 2-38; paper numbering = entry minus 1); initiator Met removed; limits follow the paper's domain boundaries (1-731) and PDB 1)", "assay": "ITC; 2.5 µM rFXIII-A2 in the cell, 25 µM rFXIII-B in the syringe; MicroCal200; one set of binding sites fitted in Origin, stepwise model FS ↔ MA + A1 ↔ MA2 fitted in Affinimeter", "settings": "both partners purified"}}, "data": [{"binder": "B1", "values": [{"measurement": "Kd", "setting": "[1]", "result": 4.36, "unit": "µM"}]}, {"binder": "B2", "values": [{"measurement": "KD of the first binding event (sequential two-step model)", "setting": "[2]", "result": 0.0015, "unit": "µM"}, {"measurement": "KD of the second binding event (MA↔MA2)", "setting": "[2]", "result": 4.3, "unit": "µM"}, {"measurement": "dH of the first binding event (sequential two-step model)", "setting": "[2]", "result": -54.1, "unit": "kcal/mol"}, {"measurement": "dH of the second binding event (MA↔MA2)", "setting": "[2]", "result": -86, "unit": "kcal/mol"}]}]}
